Molecular target: T1, RIG-I (ΔCARDs) (human, UniProt O95786 230-925, del1-229)
T1 sequence: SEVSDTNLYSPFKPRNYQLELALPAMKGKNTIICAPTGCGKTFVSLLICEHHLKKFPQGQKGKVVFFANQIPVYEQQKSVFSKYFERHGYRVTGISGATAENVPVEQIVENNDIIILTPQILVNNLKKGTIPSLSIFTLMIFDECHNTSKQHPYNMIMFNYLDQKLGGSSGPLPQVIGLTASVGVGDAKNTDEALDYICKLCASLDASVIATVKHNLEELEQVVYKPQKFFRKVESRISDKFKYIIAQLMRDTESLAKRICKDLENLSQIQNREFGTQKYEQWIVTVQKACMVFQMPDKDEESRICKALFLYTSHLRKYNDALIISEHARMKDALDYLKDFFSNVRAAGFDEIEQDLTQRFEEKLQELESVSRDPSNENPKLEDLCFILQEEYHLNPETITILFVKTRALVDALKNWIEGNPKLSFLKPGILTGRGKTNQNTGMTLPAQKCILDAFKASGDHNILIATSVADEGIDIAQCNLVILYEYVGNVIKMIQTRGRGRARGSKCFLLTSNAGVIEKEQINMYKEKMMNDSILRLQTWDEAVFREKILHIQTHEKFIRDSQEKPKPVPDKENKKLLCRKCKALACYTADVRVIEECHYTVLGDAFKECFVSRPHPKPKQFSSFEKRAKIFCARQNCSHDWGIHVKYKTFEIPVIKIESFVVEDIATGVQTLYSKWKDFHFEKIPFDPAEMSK
Test: X-ray crystallography

B1: dsRNA10 (5'OH palindromic 10-mer duplex) (dsRNA)
RNA 1: GCGCGCGCGC
RNA 2: GCGCGCGCGC
B1: binds.
